Source: patent US20230159589A1 (published 2023)
Square brackets hold non-standard residues; d marks the D form. Ends that are not written are not given here. F2Pmp = N[C@@H](Cc1ccc(C(F)(F)P(=O)(O)O)cc1)C(=O)O

T1: STEP32 WT (catalytic domain of protein tyrosine phosphatase STEP/PTPN5, aa 282-563, N-terminal 6xHis tag) (UniProt P54829 282-563)
T1 construct: Expressed from pLIC-SGC1-PTPN5 WT (Addgene 39166); also called catalytic active STEP32
T1 sequence: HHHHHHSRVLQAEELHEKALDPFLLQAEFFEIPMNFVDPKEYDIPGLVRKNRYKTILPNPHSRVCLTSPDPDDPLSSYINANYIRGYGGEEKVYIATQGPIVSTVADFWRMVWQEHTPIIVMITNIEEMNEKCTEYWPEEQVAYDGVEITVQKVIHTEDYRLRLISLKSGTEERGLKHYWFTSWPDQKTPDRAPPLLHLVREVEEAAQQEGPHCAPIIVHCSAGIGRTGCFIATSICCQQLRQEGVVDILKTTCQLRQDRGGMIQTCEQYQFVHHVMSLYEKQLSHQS


Experiments:
[1] = target: STEP32 C/S (catalytically inactive substrate-trapping mutant of the catalytic domain of protein tyrosine phosphatase STEP/PTPN5, aa 282-563, C496S, N-terminal 6xHis tag) (Homo sapiens (Human)) (UniProt P54829); experiment: SPR (value taken from Table S3)
[2] = target: STEP32 C/S (catalytically inactive substrate-trapping mutant of the catalytic domain of protein tyrosine phosphatase STEP/PTPN5, aa 282-563, C496S, N-terminal 6xHis tag) (Homo sapiens (Human)) (UniProt P54829); experiment: SPR (Biacore 3000), peptide immobilized, STEP32 C/S analyte, 1:1 Langmuir fit
[3] = target: STEP32 C/S (catalytically inactive substrate-trapping mutant of the catalytic domain of protein tyrosine phosphatase STEP/PTPN5, aa 282-563, C496S, N-terminal 6xHis tag) (Homo sapiens (Human)) (UniProt P54829); experiment: fluorescence polarization competition; displaces TAMRA-3Y-F2Pmp from STEP32 C/S
[4] = target: STEP32 C/S (catalytically inactive substrate-trapping mutant of the catalytic domain of protein tyrosine phosphatase STEP/PTPN5, aa 282-563, C496S, N-terminal 6xHis tag) (Homo sapiens (Human)) (UniProt P54829); experiment: SPR; reference p3Y
[5] = target: STEP32 C/S (catalytically inactive substrate-trapping mutant of the catalytic domain of protein tyrosine phosphatase STEP/PTPN5, aa 282-563, C496S, N-terminal 6xHis tag) (Homo sapiens (Human)) (UniProt P54829); experiment: ligand efficiency derived from the binding data
[6] = target: STEP32 C/S (catalytically inactive substrate-trapping mutant of the catalytic domain of protein tyrosine phosphatase STEP/PTPN5, aa 282-563, C496S, N-terminal 6xHis tag) (Homo sapiens (Human)) (UniProt P54829); experiment: fluorescence polarization competition; column headed Kd, the text speaks of IC50 values in Table 3
[7] = target: STEP32 C/S (catalytically inactive substrate-trapping mutant of the catalytic domain of protein tyrosine phosphatase STEP/PTPN5, aa 282-563, C496S, N-terminal 6xHis tag) (Homo sapiens (Human)) (UniProt P54829); experiment: fluorescence polarization competition; displaces TAM-3Y-F2Pmp from STEP32 C/S
[8] = target: STEP32 C/S (catalytically inactive substrate-trapping mutant of the catalytic domain of protein tyrosine phosphatase STEP/PTPN5, aa 282-563, C496S, N-terminal 6xHis tag) (Homo sapiens (Human)) (UniProt P54829); experiment: SPR, peptide immobilized, STEP32 C/S analyte
[9] = target: STEP32 C/S (catalytically inactive substrate-trapping mutant of the catalytic domain of protein tyrosine phosphatase STEP/PTPN5, aa 282-563, C496S, N-terminal 6xHis tag) (Homo sapiens (Human)) (UniProt P54829); experiment: fluorescence polarization competition; reference EGYNVpY hexapeptide
[10] = target: T1, STEP32 WT (catalytic domain of protein …); experiment: SPR, peptide immobilized, STEP32 WT analyte (per FIG. 7 legend)
Method: (§1) For each kinetic experiment, at least five different protein concentrations ranging between 100 nM and 500 μM were used. […] The association and dissociation time was set to 5 min. After each interaction test, 2-4 cycles of regeneration were performed by injecting 1M NaCl in HBS-EP buffer (0.01 M HEPES pH 7.4, 0.15 M NaCl, 3 mM EDTA, 0.005% v/v Surfactant P20) for 2 min at a flow rate of 20 μl/min. HBS-EP buffer was used as a running buffer. All measurements were carried out at 25° C. The data obtained was processed with BIAevaluation 3.1 software using 1:1 Langmuir fitting model with drifting baseline (using “Kinetics Simultaneous Kd/Ka” module). Nonspecific signals were removed by subtraction of signals from the reference area.

[11] = target: T1, STEP32 WT (catalytic domain of protein …); experiment: SPR (Biacore 3000), peptide immobilized, STEP32 WT analyte (per FIG. 7 legend), 1:1 Langmuir fit
Method: For kinetic interaction studies by SPR, each of the short phosphopeptides was covalently immobilized on a flow cell of a carboxymethylated dextran chip. […] The amino group of the spacer was used to perform the covalent binding of the ligands to the sensor.
as §1

Ka [2]	Kd [2]	koff [2]	Ki [3]	IC50 [6]	Ki [7]	Molecule	further results
1.88e+07 M⁻¹	53.1 nM	0.00176 s⁻¹	1640 nM	2600 nM	690 nM	p3Ysh-3 (PEG2-EGYNVpY) (peptide)	LE (ligand efficiency) [5]: 0.64; fold lower Kd than p3Y [4]: 4 fold; fold smaller Kd than p3Y [4]: > 2 fold; Kd [1]: 60 nM; kon [2]: 33100 M⁻¹ s⁻¹
			13700 nM			p3Ysh-4 (PEG2-NSpYG) (peptide)	
				8010 nM	1900 nM	p-fin1 (GYNVpY) (peptide)	
				7150 nM	1850 nM	p-fin2 (DGYNVpY) (peptide)	
				8840 nM	2160 nM	p-fin3 (NGYNVpY) (peptide)	
1.13e+07 M⁻¹	88.4 nM	0.00692 s⁻¹		1860 nM	360 nM	p-fin4 (EGYNVpYE) (peptide)	Kd [8]: 90 nM; kon [2]: 78200 M⁻¹ s⁻¹; fold improvement of the inhibition constant over the original hexapeptide [9]: 2 fold

Further lines, the molecule ahead of its results:

Molecule	Ka [2]	Kd [2]	koff [2]	Ki [3]	IC50 [6]	Ki [7]	further results
p3Ysh-1 (PEG2-NVpYG) (peptide)	38400 M⁻¹	26000 nM	0.00252 s⁻¹	4990 nM			Kd [1]: 26000 nM
p3Ysh-2 (PEG2-YNVpYG) (peptide)	253000 M⁻¹	3960 nM	0.179 s⁻¹	13100 nM			fold higher Kd than p3Y [4]: 17 fold; Kd [1]: 3960 nM; kon [2]: 45200 M⁻¹ s⁻¹
p3Ysh-5 (PEG2-YVpYG) (peptide)				5340 nM			
p3Ysh-6 (PEG2-FGYNVpYG) (peptide)	163000 M⁻¹	6130 nM	0.11 s⁻¹	6960 nM			fold higher Kd than p3Y [4]: 6.4 fold; Kd [1]: 6130 nM; kon [2]: 17900 M⁻¹ s⁻¹
p3Ysh-7 (PEG2-FSpYG) (peptide)				4570 nM			
p-fin5 (EGYNVpYGD) (peptide)					3360 nM	760 nM	
EGYNV[F2Pmp] (also called 3Ysh-F2Pmp) [3Ysh-3-F2Pmp (EGYNV{F2Pmp})]							Kd [10]: 240 nM; Ka [11]: 4.12e+06 M⁻¹; Kd [11]: 242 nM; koff [11]: 0.00483 s⁻¹; kon [11]: 19900 M⁻¹ s⁻¹
ATYKEGYNV[F2Pmp]G (also called p3Y-F2Pmp) [3Y-F2Pmp (ATYKEGYNV{F2Pmp}G)]							Kd [10]: 270 nM; Ka [11]: 3.74e+06 M⁻¹; Kd [11]: 268 nM; koff [11]: 0.00656 s⁻¹; kon [11]: 24500 M⁻¹ s⁻¹
